The DeepSol protein solubility set

Experiment: soluble on expression in E. coli; label from the status in PepcDB or PDB records

Sequence | soluble on expression in E. coli
PHMQPFDSGHDDLVHDVVYDFYGRHVATCSSDQHIKVFKLDKDTSNWELSDSWRAHDSSIVAIDWASPEYGRIIASASYDKTVKLWEEDPDQEECSGRRWNKLCTLNDSKGSLYSVKFAPAHLGLKLACLGNDGILRLYDALEPSDLRSWTLTSEMKVLSIPPANHLQSDFCLSWCPSRFSPEKLAVSALEQAIIYQRGKDGKLHVAAKLPGHKSLIRSISWAPSIGRWYQLIATGCKDGRIRIFKITEKLSPLASEESLTNSNMFDNSADVDMDAQGRSDSNTEEKAELQSNLQVELLSEHDDHNGEVWSVSWNLTGTILSSAGDDGKVRLWKATYSNEFKCMSVITAQQ | soluble
MHIADMTMFYAPASGGVRTYLEAKHRHLWHYPGIRHSVLVPGASYRQANGIHEVPAPPLPFGNGYRFPLRRGPWRKVLRNLQPDLIEVGDPYLTAWAALDARRRLDVPVIGFYHSDLPLLVSNRMGAWLGTNADNYVSKLYGHFDRVLAPSRVMAEKLMRLGVADVHVQPLGVDLVTFHPSNRDPGLRQELGLDEETRLLVFAGRGSREKNLPVLLDAIQRLGDGYHLLLVGSNMPTRVPRNTSVVDHFCDSREVARLLASSDALLHAGDQETFGLVALEAMASGIPVVAVRAGALAEIVPERCGVLCAPNNGDAMACAVRELFSHDVELRGQRARRHVERQHAWDAVVAGLLLHYHAVLGDSEARFPRYGLEHHHHHH | not soluble
MGSDKIHHHHHHMTTARRQLIDAESTPFYHVINRCVRRAFLCGEDALSGRSYEHRRDWIVDKIKQLSSVFCIDVCAYAVMSNHYHLVLKINLATQKRLSHFEVIERWTQLFFGHPVAAKFLKGDSLEEGERLLLDSLIGEWQERLGSISWFMRCLNEEIARKANREDGCKGVFWEGRFKSQALLDEQALLACMMYVDLNPIRAGIADSLQGSDYTSIQERIEELASPQSAPVALKPLLAFDGAAIATEQCGIPFHFADYLELIDWTGRAVREDKRGFIATTRPKLLAELGISDDAWITSAKEFRRQYSGISGRWDAMCAMKAKCGGKWCRGKQQSASIHPD | not soluble
MIRFARPKPIIDSVSYNLLQKCYASGTPKGKSKLKTGQSLKRNKLTIKKGGGNGGGRGGDEVDKGKGRISDQCINAPCPVRYLRPKEREREARREKLGLISKARQKEIDFQKKGGSFTMGVTTAPMRIGTPGLDYISLGIFTEDELPKYKVTVEDGIRLAKEYSRVLMREHRARRVAEISLMKMRNAAVEALPENLKKAALVRDLTPFPVSRGTVRLLHLLKGIWRGL | soluble
MENNNGFADMADYLGKLSQVDATKLSIESLTAAANFYMEKLLPNIPKSLLKKKHMVDQVKVNIKDNEVQVAFEDTAFYWRFAENGTVNQKAQHFASGTFEQNKDQIEKIMTQQILDLWKG | soluble
MSPTLQDARLLWDFLGQGRCHVPCELLVVCGSYDLRVCDHACELLERGLAERLLFTGNTGHWTRHLWVEPEAELFARHARARGVSDSLIVIEPRATNFAENIAFARELFPDLRRATFVTKPNSIRRVALTLPVRWPGLEGHVDAPDYAFPDGISNLVGVLGVIDEMVGDLDRIMRYPALGFQVACPIPAQVMDAWERLVARGFDRHLVNPPRLEHHHHHH | soluble
GPGSMSFAQNGTAPSTPAQQSKPEPDASPVAGEGSTSGRCAFDPEALRNLIVNYLPPLMNEAQVYELFGQFGRIESVKIIYDKITGESRGYGFVKYYFFFSATYAVSCLNRFEIGGKKLKVAYANAPAAKEAYDMLRLSAVALSVQQQQAMQSMYYHQMVLAQEQQGASAASSVAASAPMVGGADYGPYMNRVGGGYAMRQRESGAGYAQGMYPGMVAGGSVYLAGPFASGSRIVTPAIAPIGF | not soluble
MASRETILDVLAKLEECKETLNNSLNYDEAANSNGSSTFQDQSEIKIEHIAPNLVFENGTVPQEQSNSFQWYEEEVSNDACVSSNEYSGVKLCPFNIGFKSYNTPPDQMQQLDKSISDNMACRMNVDFSGIDRLIQHGSEDMRTVGYGMRGMMKLLQIQHEKLMGKKPDDVTTGLKASLVPARFLKEKTVIVRNLTDDADINVNKVFGQLTAQSSSLKNIVINAANVWIKNVVPDEQRKLYSTSIKPQQPQITFPAQLLNGPAGLLVRCLSVTGGDNSSNAVNISLLFKQHVSNLFNHARSKSGITNSRKRKQQSEDYSYN | not soluble
EKALSKQYLQTAKDKITSLKNLKVIAITGSFGKTSTKNFLLQILQTTFNAHASPKSVNTLLGLANDINQNLDDRSEIYIAEAGARNKGDIKEITCLIEPHLVVVAEVGEQHLEYFKTLENICETKAELLDSKRLEKAFCYSVEKIKPYAPKDSPLIDYSSLVKNIQSTLKGTSFEMLIGSVWERFETKVLGEFSAYNIASAILIAKHLGLETERIKRLVLELNPIAHRLQLLEVNQKIIIDDSFNGNLKGMLEGIRLASLHKGRKVIVTPGLVESNTESNEALAQKIDGVFDVAIITGELNSKTIASQLKTPQKILLKDKAQLENILQATTIQGDLILFANDAPNYI | not soluble
MGSDKIHHHHHHEEMEKGFDPKRYARELWFKLQDMMNEGLGYDAVEVLNTLDENPELAHQKFAKVVGVSNYRYYIIQGVGEIVEIKDDGILVKVRENRKVPDLFLSNHIFGNGIVNATGIAKMEDFDRIIDFNLTATELNKIVKEEVVNSFLKQLSKGAGSVGSLVRFIAVFTLLKDEEIKYPIEAIPLYLEIQGGF | soluble
MSHDVKELIEGLNEDLAGEYSAIIMYNHNAATVSGIYRQVLKPFFESEISDEQGHALYLAEKIKTLGGTPTTIPLRVKQAEDVREMLEYARQSEYETIKRYEKRKEQAANLNMTELVVKLEDMIADETNHMEELDRLLNDKAMVLN | soluble
MAGDPMTSLTYLQGYPEHLLAQVRALIAEQRLGAVLEKRYPGAHDYATDKALYHYTQELKSQFLRNAPPINKVMYDSKIHVLKNALGLHTAVSRVQGGKLKAKAEIRVATVFRNAPEPFLRMIVVHELAHLKEKDHNKAFYQLCCHMEPQYHQLEFDTRLWLTHQALSAQLEHHHHHH | not soluble
MPRRAPAFPLSDIKAQMLFANNIKAQQASKRSFKEGAIETYEGLLSVDPRFLSFKNELSRYLTDHFPANVDEYGRVYGNGVRTNFFGMRHMNGFPMIPATWPLASNLKKRADADLADGPVSERDNLLFRAAVRLMFSDLEPVPLKIRKGSSTCIPYFSNDMGTKIEIAERALEKAEEAGNLMLQGKFDDAYQLHQMGGAYYVVYRAQSTDAITLDPKTGKFVSKDRMVADFEYAVTGGEQGSLFAASKDASRLKEQYGIDVPDGFFCERRRTAMGGPFALNAPIMAVAQPVRNKIYSKYAYTFHHTTRLNKEEKVKEWSLCVATDVSDHDTFWPGWLRDLICDELLNMGYAPWWVKLFETSLKLPVYVGAPAPEQGHTLLGDPSNPDLEVGLSSGQGATDLMGTLLMSITYLVMQLDHTAPHLNSRIKDMPSACRFLDSYWQGHEEIRQISKSDDAMLGWTKGRALVGGHRLFEMLKEGKVNPSPYMKISYQHGGAFLGDILLYDSRREPGSAIFVGNINSMLNNQFSPEYGVQSGVRDRSKRKRPFPGLAWASMKDTYGACPIYSDVLEAIERCWWNAFGESYRAYREDMLKRDTLELSRYVASMARQAGLAELTPIDLEVLADPNKLQYKWTEADVSANIHEVLMHGVSVEKTERFLRSVMPR | soluble
MLARSDRLSVVAVVEGTRKQPDPATFIGKGKAEEISQILAQTHAAMVIFNHELSPVQQRNLSMVLACRIIDRTSLILEHHHHHH | not soluble
MSLADHIDAIKKEMTSLSSQFNSNKSELERSKQDLSSMQLQMQQQMNDSVQQDLQKAHDTSKKLDNLARTFLALITDPSQQSQLLAEFESISKNGTPQMPVMTPPMMNAVAAMQPHMMMRNPMLNAMGGASPRVSGKGGAPQNGGMNGMSMMQHMQMQAFQAQMMQAQMFQQMPMMMPGMVPGMPPGMAGLPGMMPPNNMAAAMQHFNAQMAAAASVAVSTPSRNPSTSGAASRTRTPLTTSATNSPRPTTEPTIKEEEPQTMEHDVAAAVAATTATATIKQEENSTVAVA | not soluble
MGSDKIHHHHHHMTVHDRIVAEPFSLQRRNPAGGTKPLTSWGFANETDVLTDVLLGSPNFLRHLSTSSLSRKHLREAPCNVQIAQAQHKDLVAAYEHFGVNIHWHEPTPELPMQVYSRDSSVMTPYGAIITAMANWWRRGENYAAIRTYEKLGIPIYDMVTAGTFEGGDFNVIEDGVVLIGCGGARTQEEGARQVQAWFEKEGWETRIAFIDEYYVHIDLMVVPIAEKLTAVCLACTEPGIVDWLKGKGHEIIDVPFQDTMALGCNFMSLGKDRVIAPTSSQTLIGQLKARGFEVAAVDMSEISKTGGGIHCMAQALKREAA | not soluble
MVSEEEEEEDGDAEETQDSEDDEEDEMEEDDDDSDYPEEMEDDDDDASYCTESSFRSHSTYSSTPGRRKPRVHRPRSPILEEKDIPPLEFPKSSEDLMVPNEHIMNVIAIYEVLRNFGTVLRLSPFRFEDFCAALVSQEQCTLMAEMHVVLLKAVLREEDTSNTTFGPADLKDSVNSTLYFIDGMTWPEVLRVYCESDKEYHHVLPYQEAEDYPYGPVENKIKVLQFLVDQFLTTNIAREELMSEGVIQYDDHCRVCHKLGDLLCCETCSAVYHLECVKPPLEEVPEDEWQCEVCVAHKVPGVTDCVAEIQKNKPYIRHEPIGYDRSRRKYWFLNRRLIIEEDTENENEKKIWYYSTKVQLAELIDCLDKDYWEAELCKILEEMREEIHRHMDITEDLTNKARGSNKSFLAAANEEILESIRAKKGDIDNVKSPEETEKDKNETENDSKDAEKNREEFEDQSLEKDSDDKTPDDDPEQGKSEEPTEVGDKGNSVSANLGDNTTNATSEETSPSEGRSPVGCLSETPDSSNMAEKKVASELPQDVPVGDFKSEKSNGELSESPGAGKGASGSTRIITRLRNPDSKLSQLKSQQVAAAAHEANKLFKEGKEVLVVNSQGEISRLSTKKEVIMKGNINNYFKLGQEGKYRVYHNQYSTNSFALNKHQHREDHDKRRHLAHKFCLTPAGEFKWNGSVHGSKVLTISTLRLTITQLENNIPSSFLHPNWASHRANWIKAVQMCSKPREFALALAILECAVKPVVMLPIWRESLGHTRLHRMTSIEREEKEKVKKKKKK | soluble
MGSDKIHHHHHHMRIGLFTDTYFPQVSGVSTSIRTLKEGLEKEGHEVYIFTTTDRNVKRFEDPTIIRLPSVPFISFTDRRVVYRGLISAYRIAKDYELDIIHTQTEFSLGLLGKLVAKALRIPVVHTYHTQYEDYVGYIAKGKLIKPSMVKYIMRTYLSDLDGVICPSRIVLNLLDGYGVKIPKQVIPTGIPVENYRREDISEETIKNLRTELGLADNDTMLLSLSRVSFEKNIQAILMHLSAVVDENPHVKLVIVGDGPYLSDLKELVHSLELENSVIFTGMVEHSQVAIYYKACDFFISASTSETQGLTYIESLASGRPIIAQSNPYLDDVISDKMFGTLYKKESDLADAILDAIAETPKMTQEAYEQKLYEISAENFSKSVYAFYLDFLISQKASVKEKVSLTIGNKDSHSTLRFVRKAVYLPKKVFTFTGRASKKVVKAPKRRISSIRDFLD | not soluble
MLPFFKELQTCTEMLEKNPQDATALFQKAVLLYKARRFEAALQLIEQVLEIVPDDFRVWYNRGVVLSEMGRLEDALAAYDRVIELEPVFEMAWDNKGVVLARLGRFEEALETYEKVLLRNPKYAEAWAGKGSVLSALDRKEEALEAYLSALKIRPDYLEALKSVGSLFSRLGRYEEALAAYDTALQAAPEAPELWAGRGLVLSELDRQEEALQSCSRALELKPGFAPALEVKVKILSEIGRQKARASQLEHHHHHH | soluble
MRESPYRILEEALRPHLGARAQVVLEEGLKRLGKRPEELSEKDAETLLKGLIFRELQARLPAAQARRAVEEALARLAPAPEGGLEALERGLARFGLYVDWPEVGRLRALVNRLRREPDPRLLQEGLALLDHLEEKLEEALLRQAQDLAHLEEALERVRPLGGPKVRRLESLIQIVREAHREGTLAQGEVERARGPGPEAPQVPGLQSRPARHPPRDGL | soluble
